Biological target: pakc_dicdi pakC (UniProt Q55GV3)
Sequence (Q55GV3 whole entry): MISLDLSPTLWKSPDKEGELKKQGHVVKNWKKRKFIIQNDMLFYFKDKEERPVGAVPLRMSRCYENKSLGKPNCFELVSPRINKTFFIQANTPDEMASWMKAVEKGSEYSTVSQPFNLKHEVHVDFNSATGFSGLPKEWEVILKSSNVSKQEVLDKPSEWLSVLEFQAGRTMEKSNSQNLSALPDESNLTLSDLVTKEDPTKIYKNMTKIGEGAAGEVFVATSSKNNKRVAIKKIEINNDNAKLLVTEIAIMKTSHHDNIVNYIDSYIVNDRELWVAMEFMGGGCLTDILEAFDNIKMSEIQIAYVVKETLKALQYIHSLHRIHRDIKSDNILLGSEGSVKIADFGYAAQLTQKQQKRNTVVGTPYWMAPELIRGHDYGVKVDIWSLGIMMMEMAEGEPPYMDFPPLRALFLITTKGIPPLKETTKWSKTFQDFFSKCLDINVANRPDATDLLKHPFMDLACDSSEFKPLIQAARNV

Chain of Rho-related protein racB (Dictyostelium discoideum (Slime mold)), P34148 T17N (P34148 whole entry T17N): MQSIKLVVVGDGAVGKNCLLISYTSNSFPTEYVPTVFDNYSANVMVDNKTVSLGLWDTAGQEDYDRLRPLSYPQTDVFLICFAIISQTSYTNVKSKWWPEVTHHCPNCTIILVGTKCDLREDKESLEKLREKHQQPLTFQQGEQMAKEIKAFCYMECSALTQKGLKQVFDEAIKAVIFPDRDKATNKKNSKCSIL

effect of a mutation on the interaction: decreasing interaction
Substance: Rho-related protein racB (Dictyostelium discoideum (Slime mold)), P34148 T17N
